In patent US20250154231A1 (RQBIO COVID, published 2025):

Columns and labels:
Omicron BA.2.12.1 RBD = molecular target: T1, Omicron BA.2.12.1 RBD (SARS-CoV-2, UniProt P0DTC2 333-528); experiment: crystal structure of the ternary complex, 2.38 A
T1 construct: domain: RBD

Omicron BA.1 RBD [1] = molecular target: T2, Omicron BA.1 RBD (SARS-CoV-2, UniProt P0DTC2 333-528); experiment: crystal structure of the complex
T2 construct: domain: RBD

Omicron BA.2 RBD = molecular target: T3, Omicron BA.2 RBD (SARS-CoV-2, UniProt P0DTC2 333-528); experiment: SPR, single injection of RBD over the IgG
T3 construct: domain: RBD

Omicron BA.1 RBD [2] = molecular target: T2, Omicron BA.1 RBD; experiment: ELISA

B1: Beta-27 Fab (Fab, V domains shown)
VH: EVQLLESGGGLVQPGGSLRLSCAASGLTVRSNYMNWVRQAPGKGLEWVSLIYSGGSTFYADSVKGRFTISRHDSKNTLYLQMNSLRAEDTAVYYCARDLVVYGMDVWGQGTTVTVSS
VL: DIQMTQSPGTLSLSPGERATLSCRASQSVSSSSLAWYQQKHGQAPRLLIYGTSSRATGIPDRFSGSGSGTDFTLTISGLEPEDFAVYYCQQYGSSPLFGGGTKVEIK
B1: binds (Omicron BA.2.12.1 RBD).

B2: Omi-9 Fab (Fab, V domains shown)
VH: QVQLVESGGGVVQPGRSLRLSCAASGFTFRTYAVHWVRQAPGKGPEWVAVISYDGSNKYYADSVKGRFTLSRDTSKNTLYLQMNSLRAEDTAVYYCASRGDTVTTGDAFDIWGQGTMVTVSS
VL: SYELTQPPSVSVSPGQTARITCSGDALPKQYTYWYQQKPGQPPVLVIYKDSERPSGIPERFSGSSSGTTVTLTISGVQAEDEADYYCQSTDSSATYPGNVVFGGGTKLTVL
B2: binds (Omicron BA.1 RBD [1]).

B3: Omi36 (antibody, V domains shown)
VH: EVQLVESGGGVVQPGGSLRLSCAASGIIVSANYMTWVRQAPGKGLEWVSVIYPGGSTFYADSVKGRFTISRDNSKNTLYLQMNSLRVEDSAVYYCARDLELAGFNDYWGQGTLVTVSS
VL: DIVMTQSPGTLSLSPGERATLSCRTSQSVSSNYLAWYQQKPGQAPRLLIYGASSRATGIPDRFSGSGSGTDFTLTISRLEPEDFAVYYCQQFGSSPRYTFGQGTKVEIK
B3: binds (Omicron BA.2 RBD); binds (Omicron BA.1 RBD [2]).
